Assay results reported in the supplement of paper PMC9732359.
± gives the uncertainty stated by the source.

Test: protein stability index of a GFP-peptide fusion (yeast GPS) (PSI 1-4); higher = more stable; sorted into four equal gates, so the index is relative within each strain
In short: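 Peptides tiling yeast proteins in 17-residue segments were fused downstream of GFP, with Cherry expressed from the same plasmid. As a pooled library in yeast, mid-log cultures grown in leucine-free medium were sorted into four equal gates by GFP/Cherry fluorescence ratio. Gate plasmids were PCR-amplified and Illumina-sequenced, and barcodes linked reads to strains. Each peptide received a protein stability index equal to the sum of each gate's read frequency times its gate number.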

Sequence	protein stability index (doa10∆)	protein stability index (pdr5∆)	protein stability index (san1∆)	protein stability index (ubr1∆)
GSIFTHETTFMTAMRLM [YML031W/NDC1]	1.88 ± 0.072	2.53 ± 0.083	2.71 ± 0.065	2.64 ± 0.081
VSHHATTFTHCEIHPSM [RPB2]	3.12 ± 0.076	3.22 ± 0.069	2.46 ± 0.12	2.96 ± 0.062
KFLQEFINLLLNCCGSV [IRR1]	2.07 ± 0.11	1.74 ± 0.091	1.57 ± 0.11	1.8 ± 0.062
EDLLHYIEEKHPTIYES [POP4]	3.47 ± 0.078	3.4 ± 0.093	3.37 ± 0.077	3.27 ± 0.084
KARTNLHQHVVLKCLKS [RPC34]	2.91 ± 0.19	2.64 ± 0.16	2.33 ± 0.14	2.23 ± 0.23
TTLTIMRILPRETDPLV [RPT4]	2.63 ± 0.068	2.62 ± 0.057	2.73 ± 0.064	2.52 ± 0.039
GSPSLTSPQYIPSPLSS [NUT1]	2.56 ± 0.042	2.52 ± 0.033	2.65 ± 0.037	2.52 ± 0.028
SDINQNDDSSSMNATMR [YDL088C/ASM4]	2.88 ± 0.09	2.98 ± 0.075	2.76 ± 0.073	2.69 ± 0.054
LNGREVKAILMQRHVKV [RPS4A]	1.23 ± 0.081	1.25 ± 0.063	1.39 ± 0.21	1.24 ± 0.051
ETASFIPTKESLTRDFE [YIL149C/MLP2]	2.83 ± 0.068	3.09 ± 0.075	2.41 ± 0.077	2.72 ± 0.046
DLIHKSEAFPSLQSCSV [SMC4]	2.53 ± 0.085	2.32 ± 0.061	2.47 ± 0.067	2 ± 0.041
SMGSILLSFVLGVVFGR [YML031W/NDC1]	2.39 ± 0.046	2.13 ± 0.043	2.56 ± 0.055	2.64 ± 0.059
VKRRRDMLEHINLAMNE [SRB4]	1.3 ± 0.096	1.33 ± 0.12	1.14 ± 0.19	1.2 ± 0.078
LDKVINKELPINHTILG [RPN8]	2.19 ± 0.077	2.27 ± 0.08	1.67 ± 0.13	2.4 ± 0.055
KNKDSLVSNPHEIYGSM [SRB4]	3.04 ± 0.084	3.09 ± 0.09	2.96 ± 0.07	3.26 ± 0.14
ESLYDLIEFQPSQGVHY [MED6]	2.84 ± 0.078	2.87 ± 0.061	2.91 ± 0.051	2.7 ± 0.051
ERVTALKNCKISNINIP [SMC1]	3.25 ± 0.1	3.25 ± 0.12	3.1 ± 0.066	3.41 ± 0.11
ERAKNVNGLLQVLMDIN [GAL11]	2.94 ± 0.086	3.15 ± 0.083	3.19 ± 0.12	2.83 ± 0.04
YGGSRCANCVKERIVRA [RPL34B]	3.36 ± 0.21	3.38 ± 0.089	2.87 ± 0.076	3.15 ± 0.14
KKVTAFVPNDGCLNFVD [RPS23A]	2.88 ± 0.054	3.17 ± 0.046	3.11 ± 0.032	2.85 ± 0.035
KLNVVGWFHSHPGYDCW [RRI1]	2.59 ± 0.095	2.38 ± 0.099	2.61 ± 0.13	2.38 ± 0.064
TRSKRLSQVYPTLVRSV [CSN12]	1.72 ± 0.12	2.1 ± 0.22		
TQSGGVRPFGVSTLIAG [PRE6]	1.5 ± 0.14	1.72 ± 0.12	1.75 ± 0.17	1.43 ± 0.081
CWLSNIDIQTQDLNQRF [RRI1]	2.72 ± 0.11	3.23 ± 0.11	3.24 ± 0.072	3.17 ± 0.079
KAEIPPEYAKVGDFLLQ [SIN4]	1.52 ± 0.079	1.93 ± 0.06	1.7 ± 0.093	1.46 ± 0.061
FDRLNGNDTISKFYNMK [SSN2]	3.17 ± 0.1	3.06 ± 0.082	3.19 ± 0.053	3.08 ± 0.059
HLALEIGEVYNDQVEKD [RPN1]			3.41 ± 0.19	

Sequence	protein stability index (doa10∆)	protein stability index (pdr5∆)	protein stability index (san1∆)	protein stability index (ubr1∆)
VAARGLDIPNVSLVVNF [PRP28]	2 ± 0.12	2.5 ± 0.096	2.04 ± 0.12	3.1 ± 0.15
NEKVAVMRNTYNTRKNA [GAL11]	2.76 ± 0.14	3.14 ± 0.06	2.18 ± 0.072	2.37 ± 0.09
LYPSFKPIYKDTRFGGR [SSN2]	3.17 ± 0.15	3.16 ± 0.087	3.1 ± 0.047	3.41 ± 0.14
MAYTSHLSSKTGLHFGR [QCR10]	3.08 ± 0.16	2.78 ± 0.087	2.69 ± 0.089	2.76 ± 0.066
NTKEIAVDLEHHDYRSY [RRP6]	2.93 ± 0.06	3.07 ± 0.048	3.15 ± 0.056	3.054 ± 0.03
MEYLKSSKSLDLNTRIS [RPN5]	2.83 ± 0.057	1.69 ± 0.051	2.34 ± 0.063	2.61 ± 0.055
IKEFVDDLKKDHIAIDW [DSN1]	2.56 ± 0.08	2.96 ± 0.075	2.73 ± 0.076	2.75 ± 0.059
PSPYKTTVYRYSAAKKI [YAR002W/NUP60]	1.69 ± 0.051	1.98 ± 0.05	1.49 ± 0.069	1.67 ± 0.042
SKSEFAHRIMLTNILRM [FAS2]	1.62 ± 0.066	1.67 ± 0.068	1.46 ± 0.14	1.85 ± 0.081
PLARNYIKSMDLISKKT [RPR2]	2.78 ± 0.065	3.01 ± 0.063	2.77 ± 0.054	2.94 ± 0.039
SMKYDNGVIIAADNLGS [PRE4]	2.66 ± 0.15	3.35 ± 0.088	2.5 ± 0.13	3.06 ± 0.11
FGEWAGMTKSNIYNFSP [BRR2]	2.94 ± 0.083	3.05 ± 0.082	2.89 ± 0.055	2.98 ± 0.052
DEGKEIPATIFDKVIYH [TAF14]	3.13 ± 0.077	3.14 ± 0.059	3.15 ± 0.041	3.02 ± 0.056
DLKLLFNTEAEQTVSAV [RGR1]	2.84 ± 0.088	2.93 ± 0.085	3.33 ± 0.11	3.19 ± 0.066
SMSEEFKYVSVRYEEKR [BRR2]	3.41 ± 0.2	3.38 ± 0.14	3.12 ± 0.22	
NVFGTLQRHSGISSTLV [YLR018C/POM34]	2.03 ± 0.09	2.01 ± 0.096	1.77 ± 0.23	3.25 ± 0.27
ARDLLDDLEKTLDKKDS [RPN9]	3.21 ± 0.17	2.75 ± 0.11	3.15 ± 0.12	2.56 ± 0.1
LKIIHDTFRWVGKKSAP [RPO31]	2.51 ± 0.15	2.43 ± 0.21	2.35 ± 0.2	3.14 ± 0.11
NAGPNSNIPNLLRNLES [YDL088C/ASM4]	2.35 ± 0.043	1.96 ± 0.043	2.23 ± 0.073	2.46 ± 0.031
IERYPSKVTKKHGAKKV [RPL27B]	3.26 ± 0.074	3.49 ± 0.095	3.43 ± 0.061	3.31 ± 0.059
NKLGALKTNFETEWNLQ [RPB11]	2.68 ± 0.064	2.9 ± 0.077	3.22 ± 0.12	2.95 ± 0.091
LLENPNCFFDVIVPQIV [DIS3]	3.23 ± 0.13	3.12 ± 0.12	2.99 ± 0.065	2.36 ± 0.095
PSLKDSSSNGGGSAKPS [RPC53]	2.91 ± 0.18	2.82 ± 0.14	2.7 ± 0.27	2.93 ± 0.15
TLAERQQLAYDLSISAL [RPN9]	2.39 ± 0.078	2.47 ± 0.13	2.77 ± 0.24	2.95 ± 0.093
YWYEQDSAKEWPQSKNC [RPB3]	3.4 ± 0.12	3.3 ± 0.13	2.98 ± 0.13	3.43 ± 0.22
LLAKAVANQTSATFLRI [RPT2]	3 ± 0.13	2.27 ± 0.1	2.3 ± 0.14	2.21 ± 0.073
